# Test results published in the RNAGym collection of RNA variant scans (doi:10.1073/pnas.2313332121).
# B1: TPR t1 (parent)
# chain: GACCAAUCUGCCCUCAGAGCUCGAGAACAUCUUCGGAUGCAGAGGAGGCAGGCUUCGGUGGCGCGAUAGCGCCAACGUCCUCAACCUCCAAUGCAUCCCACCACAUGAUGAUGCCUGAAGAGCCUUGGUUUUUUG
# Variants of: B1
# Test: polymerase ribozyme fitness, log enrichment relative to wild type (log ratio); higher = more active; in vitro selection for triplet polymerase activity
# Method in brief: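 PCR was used to build mutant libraries for each subunit of a heterodimeric triplet polymerase ribozyme, which were then transcribed. A single in vitro selection round, in triplicate, used a frozen incubation at −7 °C and recovered extended constructs by gel excision, streptavidin beads and RT-PCR. Fitness is the logarithm of genotype enrichment relative to wild-type enrichment, averaged over replicates with inverse-variance weights. The logarithm is base 2, and after Illumina sequencing only genotypes with ≥10 input reads and ≥1 read per output were kept.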
row,Variant,polymerase ribozyme fitness (log ratio)
1,C11A A46U C64A G113U,-6.19
2,C11A C22U,-5.15
3,C11U A46C G51U C86G C102A,-8.49
4,C11G U32C,-0.0143
5,C11G G77C,-0.624
6,C11U C13G C56U G93C C114U A119G,-3.78
7,C11U A18G C72A,-3.7
8,C11G A37C A41C C101A A121C G122U,-1.01
9,C11A A66U G71A A121C U130A,-1.61
10,C11G A41U G47C U59A A66U,-6.01
11,C11U G44A G52A A118C C123G,-1.81
12,C11G U78G C98U,-0.594
13,C11U A46C G120A U133G,-0.579
14,C11A C13U G19A C56G C72U,-4.6
15,C11G G17A G60A C79G A90U C99A,-7.47
16,C11U G17A G57C C89U G120C,-1.86
17,C11G G61U U87G,0.243
18,C11A G47A C62A,-3.74
19,C11A C40G,-3.12
20,C11A C28G G44A C70U A121C,-4.42
21,C11G C15A,-0.327

row,Variant,polymerase ribozyme fitness (log ratio)
1,C11U C20G A27G C56U,-5.19
2,C11G C104A,-1.42
3,C11U C73A,-0.524
4,C11A C12A C22A C40U A46U U78C C114A,-6.96
5,C11U G39U C86G,-2.92
6,C11G C72G,-0.147
7,C11U C70U,-0.753
8,C11U C70G,-2.97
9,C11G C70A A95C U112A U132C,-1.46
10,C11G A84U G122A,0.157
11,C11U G17U G48A C124G,-1.88
12,C11A C34G G45A C53U C70G C101A U106A G117C,-7.32
13,C11A C99A C123A,-5.29
14,C11U G42A C73U C104A U109A U125G,-7.2
15,C11A G52A G110U G135U,-5.37
16,C11U C86U,-0.821
17,C11G A24G A37C G42A U92C A118U,-3.62
18,C11G C15U G45A C73A A83U,-1.42
19,C11A G69U C70U,-2.77
20,C11A G117U,-3.48
21,C11A G117A,-3.3

row,Variant,polymerase ribozyme fitness (log ratio)
1,C11A G45U A84G C101U G122A,-2.1
2,C11G U21A A24U G60U C94G G120A,-7.06
3,C11G C114A,-1.06
4,C11G C22A A26C C102A,-5.19
5,C11G C40A C72U C101U C104U,-1.72
6,C11U G61A U112C,1.14
7,C11A A46U C53A C72A,-2.19
8,C11G C49A C64U,-0.24
9,C11A A111C,-1.42
10,C11A U81C A90G,-2.45
11,C11A G39U C86U C104U G110A,-2.77
12,C11A A41U G71U C72U A100U A103G C115A,-6.78
13,C11U G58A G71U A90G U116C,-2.7
14,C11A A29U G36A C124U,-4.08
15,C11A U59A,-1.59
16,C11G C15U C56U A83U,-1.12
17,C11A G48C G71A U87G U106G A121U,-2.38
18,C11A A18U,-3
19,C11U C13A U78A,-0.472
20,C11A C13G C20U C53U C64U U78G,-3.27
21,C11G G42U U59A G60U,-1.24

row,Variant,polymerase ribozyme fitness (log ratio)
1,C11G A26C G77U U81A C97U G113A,-6.37
2,C11U A74G C89G,-3.01
3,C11U G71U G93A C104U,-1.26
4,C11G U14A A46U,-1.11
5,C11A U21G A41G A121U,-0.0986
6,C11G A37U C70A A83C A121C,0.293
7,C11G G117C,-1.94
8,C11G U14A A46U G61A C62U,-2.33
9,C11G U38G C79U,-1.02
10,C11G C70G G77U A103C A121C U132A,-5.85
11,C11A G93C C102A,-3.43
12,C11G C22G G36A C70U A83C,-5.41
13,C11G C82U G117A,-0.654
14,C11G C64A,-5.88
15,C11A G51U C85U G120C,-3.38
16,C11U G19U U54A G71A A121C G135U,-4.33
17,C11U C13U U32C,-1.05
18,C11U G17U,-4.34
19,C11A C101G,-3.13
20,C11U C15G G47A C86A A90G G117U G120C,-0.496
